This note sets out measurements from FireProtDB (doi:10.1006/jmbi.1995.0616).

First the molecules themselves.
B1: Subtilisin-chymotrypsin inhibitor-2A, P01053 (parent)
chain: MSSVEKKPEGVNTGAGDRHNLKTEWPELVGKSVEEAKKVILQDKPEAQIIVLPVGTIVTMEYRIDRVRLFVDKLDNIAQVPRVG

Variants of B1 are the subject of this data set. The note with it: Hordeum vulgare; pH 6.25; 25 °C; GdnHCl; Fluorescence; MES 50 mM; reversible: yes; structure 2CI2; whole UniProt chain shown.

Consider MSSVEKKPEGVNTGAGDRHNLKTEWPELVGKSVEEAKKVVLQDKPEAQIIVLPVGTIVTMEYRIDRVRLFVDKLDNIAQVPRVG [I40V], for which the “ddG of mutation (higher = less stable)” value is 0.97 kcal/mol, the denaturant m value was found to be 1.99 kcal/mol/M, the “denaturant midpoint (higher = more stable)” value (from here on “denaturant midpoint”) came out at 3.33 M and the unfolding free energy was 6.63 kcal/mol.
In the same order, the values of MSSVEKKPEGVNTGAGDRHNLKTEWPELVGKSVEEAKKVILQDKPEAQIIVLAVGTIVTMEYRIDRVRLFVDKLDNIAQVPRVG [P53A] are 0.58 kcal/mol, 1.79 kcal/mol/M, 3.91 M and 7.02 kcal/mol.
With MSSVEKKPEGVNTGAGDRHNLKTEWPELVGKSVEEAKKVIGQDKPEAQIIVLPVGTIVTMEYRIDRVRLFVDKLDNIAQVPRVG [L41G], the “ddG of mutation (higher = less stable)” value turned out to be 2.09 kcal/mol, the denaturant m value came out at 1.68 kcal/mol/M, the “denaturant midpoint” value is 3.29 M and the unfolding free energy stood at 5.51 kcal/mol.
In the same order, the values of MSSVEKKPEGVNTGAGDRHNLKTEWPELVGKSVEEAKKVIAQDKPEAQIIVLPVGTIVTMEYRIDRVRLFVDKLDNIAQVPRVG [L41A] are 1.21 kcal/mol, 1.93 kcal/mol/M, 3.32 M and 6.39 kcal/mol.
For the variant MSSVEKKPEGVNTGAGDRHNLKTEWPELVGKSVEEAKKVILGDKPEAQIIVLPVGTIVTMEYRIDRVRLFVDKLDNIAQVPRVG [Q42G], the “ddG of mutation (higher = less stable)” value came to 0.92 kcal/mol, the denaturant m value was found to be 1.81 kcal/mol/M, the “denaturant midpoint” value turned out to be 3.69 M and the unfolding free energy was determined as 6.68 kcal/mol.
Regarding MSSVEKKPEGVNTGAGDRHNLKTEWPELVGKSVEEAKKVILADKPEAQIIVLPVGTIVTMEYRIDRVRLFVDKLDNIAQVPRVG [Q42A], the “ddG of mutation (higher = less stable)” value turned out to be 0.54 kcal/mol, the denaturant m value stood at 1.77 kcal/mol/M, the “denaturant midpoint” value is 3.99 M and the unfolding free energy stood at 7.06 kcal/mol.
Regarding MSSVEKKPEGVNTGAGDRHNLKTEWPELVGASVEEAKKVILQDKPEAQIIVLPVGTIVTMEYRIDRVRLFVDKLDNIAQVPRVG [K31A], the “ddG of mutation (higher = less stable)” value turned out to be 1.2 kcal/mol, the denaturant m value was 1.52 kcal/mol/M, the “denaturant midpoint” value was found to be 4.22 M and the unfolding free energy is 6.4 kcal/mol.
With MSSVEKKPEGVNTGAGDRHNLKTEWPQLVGKSVEEAKKVILQDKPEAQIIVLPVGTIVTMEYRIDRVRLFVDKLDNIAQVPRVG [E27Q], the “ddG of mutation (higher = less stable)” value was found to be 0.57 kcal/mol, the denaturant m value stood at 1.91 kcal/mol/M, the “denaturant midpoint” value amounted to 3.68 M and the unfolding free energy amounted to 7.03 kcal/mol.
For the variant MSSVEKKPEGVNTGAGDRHNLKTEWPALVGKSVEEAKKVILQDKPEAQIIVLPVGTIVTMEYRIDRVRLFVDKLDNIAQVPRVG [E27A], the “ddG of mutation (higher = less stable)” value was found to be 1.03 kcal/mol, the denaturant m value was 1.75 kcal/mol/M, the “denaturant midpoint” value is 3.76 M and the unfolding free energy came out at 6.57 kcal/mol.
Consider MSSVEKKPEGVNTGAGDRHNLKTEWPELVGKSVEEAKAVILQDKPEAQIIVLPVGTIVTMEYRIDRVRLFVDKLDNIAQVPRVG [K38A], for which the “ddG of mutation (higher = less stable)” value came to 0.99 kcal/mol, the denaturant m value was 1.61 kcal/mol/M, the “denaturant midpoint” value turned out to be 4.11 M and the unfolding free energy was found to be 6.61 kcal/mol.
In the same order, the values of MSSVEKKPEGVNTGAGDRHNLKTEWPELVGKSVEEAKGVILQDKPEAQIIVLPVGTIVTMEYRIDRVRLFVDKLDNIAQVPRVG [K38G] are 1.58 kcal/mol, 1.73 kcal/mol/M, 3.49 M and 6.02 kcal/mol.
With MSSVEKKPEGVNTGAGDRHNLKTEWPELVGKSVEEAKKVILQDKPEAQIIVVPVGTIVTMEYRIDRVRLFVDKLDNIAQVPRVG [L52V], the “ddG of mutation (higher = less stable)” value amounted to 1.02 kcal/mol, the denaturant m value was 1.76 kcal/mol/M, the “denaturant midpoint” value worked out at 3.74 M and the unfolding free energy was 6.58 kcal/mol.
In the same order, the values of MSSVEKKPEGVNTGAGDRHNLKTEWPELVGKSVEEAKKVILQDKPEAQIIVIPVGTIVTMEYRIDRVRLFVDKLDNIAQVPRVG [L52I] are 1.01 kcal/mol, 1.7 kcal/mol/M, 3.87 M and 6.59 kcal/mol.
In the same order, the values of MSSVEKKPEGVNTGAGDRHNLKTEWPELVGKSVEEAKKVILQDKPEAQIIVAPVGTIVTMEYRIDRVRLFVDKLDNIAQVPRVG [L52A] are 1.74 kcal/mol, 2.11 kcal/mol/M, 2.78 M and 5.86 kcal/mol.
As for MSSVEKKPEGVNTGAGDRHNLKTEWPELVGKSVNEAKKVILQDKPEAQIIVLPVGTIVTMEYRIDRVRLFVDKLDNIAQVPRVG [E34N], the “ddG of mutation (higher = less stable)” value is 0.28 kcal/mol, the denaturant m value was found to be 2.01 kcal/mol/M, the “denaturant midpoint” value was found to be 3.64 M and the unfolding free energy was found to be 7.32 kcal/mol.
Consider MSSVEKKPEGVNTGAGDRHNLKTEWPELVGKSVQEAKKVILQDKPEAQIIVLPVGTIVTMEYRIDRVRLFVDKLDNIAQVPRVG [E34Q], for which the “ddG of mutation (higher = less stable)” value was 0.4 kcal/mol, the denaturant m value was found to be 1.87 kcal/mol/M, the “denaturant midpoint” value came to 3.85 M and the unfolding free energy turned out to be 7.2 kcal/mol.
Taken in the same sequence, the figures for MSSVEKKPEGVNTGAGDRHNLKTEWPELVGKSVDEAKKVILQDKPEAQIIVLPVGTIVTMEYRIDRVRLFVDKLDNIAQVPRVG [E34D] were 0.77 kcal/mol, 1.83 kcal/mol/M, 3.73 M and 6.83 kcal/mol.
As for MSSVEKKPEGVNTGAGDRHNLKTEWPELVGKSVEEAKKVILQDKPEAQIIVLPVGTIATMEYRIDRVRLFVDKLDNIAQAPRVG [V58A V80A], the “ddG of mutation (higher = less stable)” value is 3.78 kcal/mol, the denaturant m value is 2.19 kcal/mol/M, the “denaturant midpoint” value was determined as 1.75 M and the unfolding free energy is 3.82 kcal/mol.
Regarding MSSVEKKPEGVNTGAGDRHNLKTEWPELVGKSVEEGKKVILQDKPEAQIIVLPVGTIVTMEYRIDRVRLFVDKLDNIAQVPRVG [A36G], the “ddG of mutation (higher = less stable)” value came to 1.41 kcal/mol, the denaturant m value was 1.8 kcal/mol/M, the “denaturant midpoint” value was 3.44 M and the unfolding free energy is 6.19 kcal/mol.
In the case of MSSVEKKPEGVNTGAGDRHNLKTEWPELVGKSVEEAKKAILQDKPEAQIIVLPVGTIVTMEYRIDRVRLFVDKLDNIAQVPRVG [V39A], the “ddG of mutation (higher = less stable)” value was 0.06 kcal/mol, the denaturant m value worked out at 2.01 kcal/mol/M, the “denaturant midpoint” value came to 3.75 M and the unfolding free energy was determined as 7.54 kcal/mol.
In the same order, the values of MSSVEKKPEGVNTGAGDRHNLKTEWPELVGKSVEEAKKVILQDKPEAQIIVAPVGTIATMEYRIDRVRLFVDKLDNIAQVPRVG [L52A V58A] are 2.95 kcal/mol, 1.96 kcal/mol/M, 2.37 M and 4.65 kcal/mol.
In the same order, the values of MSSVEKKPEGVNTGAGDRHNLKTEWPELVGKSVEEAKKVILQDKPEAQIIVVPVGTIATMEYRIDRVRLLVDKLDNIAQVPRVG [L52V V58A F70L] are 2.84 kcal/mol, 1.83 kcal/mol/M, 2.6 M and 4.76 kcal/mol.
Taken in the same sequence, the figures for MSSVEKKPEGVNTGAGDRHNLKTEWPELVGKSVEEAKKVILQDKPEAQIIVLPVGTIATMEYRIDRVRLFVDKLDNIAQVPRVG [V58A] were 0.67 kcal/mol, 2.14 kcal/mol/M, 3.24 M and 6.93 kcal/mol.
In the case of MSSVEKKPEGVNTGAGDRHNLATEWPELVGKSVEEAKKVILQDKPEAQIIVLPVGTIVTMEYRIDRVRLFVDKLDNIAQVPRVG [K22A], the “ddG of mutation (higher = less stable)” value is 1.04 kcal/mol, the denaturant m value came out at 1.77 kcal/mol/M, the “denaturant midpoint” value was found to be 3.72 M and the unfolding free energy came to 6.56 kcal/mol.
In the case of MSSVEKKPEGVNTGAGDRHNLKTEWPELVGKSVEEAKKVILQDAPEAQIIVLPVGTIVTMEYRIDRVRLFVDKLDNIAQVPRVG [K44A], the “ddG of mutation (higher = less stable)” value was found to be 1.85 kcal/mol, the denaturant m value was 1.57 kcal/mol/M, the “denaturant midpoint” value came to 3.67 M and the unfolding free energy worked out at 5.75 kcal/mol.
As to MSSVEKKPEGVNTGAGDRHNLKTEWPELVGKSVEEAKKVILQAKPEAQIIVLPVGTIVTMEYRIDRVRLFVDKLDNIAQVPRVG [D43A], the “ddG of mutation (higher = less stable)” value amounted to 1.05 kcal/mol, the denaturant m value amounted to 1.87 kcal/mol/M, the “denaturant midpoint” value worked out at 3.51 M and the unfolding free energy is 6.55 kcal/mol.
